Reference: patent US20030166009A1 (MERCK, published 2003)
Read-outs that look alike come from different tables or passages of the source. Where no end group is shown, it is not given here.

B1: Gamma MSH (peptide, UniProt P01189 77-87, looked up)
peptide: YVMGHFRWDRF
modifications: ends and bridges not checked
notes: domain: gamma MSH; The peptide is only a part of it; also called γ-MSH
B2: ACTH1-39 (peptide, UniProt P01189 138-176, looked up)
peptide: SYSMEHFRWGKPVGKKRRPVKVYPNGAEDESAEAFPLEF
notes: domain: ACTH1-39; The numbers 1-39 count on the ACTH peptide, not on the precursor
B3: Alpha MSH (peptide, UniProt P01189 138-150, looked up)
peptide: SYSMEHFRWGKPV
notes: domain: alpha MSH; The peptide is only a part of it; also called α-MSH; α-melanocyte stimulating hormone
B4: Beta MSH (peptide, UniProt P01189 217-234, looked up)
peptide: DEGPYRMEHFRWGSPPKD
notes: domain: beta MSH; The peptide is only a part of it; also called β-MSH

Assays:
[1] = molecular target: rhesus melanocortin-4 receptor protein (rhesus monkey (Macaca mulatta))
human MC4 receptor [2] = molecular target: T1, human MC4 receptor (human, UniProt P32245 1-332)
T1 construct: whole, on cells; It was tested as crude membranes prepared from cells expressing the receptor; also called hMC-4R

human MC5 receptor [3] = molecular target: T2, human MC5 receptor (human, UniProt P33032 1-325)
T2 construct: whole, on cells; It was tested as crude membranes prepared from cells expressing the receptor; also called hMC-5R

human MC3 receptor [4] = molecular target: T3, human MC3 receptor (human, UniProt P41968 1-323)
T3 construct: whole, on cells; It was tested as crude membranes prepared from cells expressing the receptor; also called hMC-3R

[5] = molecular target: T4, rhesus melanocortin-4 receptor protein (rhesus monkey (Macaca mulatta), UniProt Q8HXX3 1-332 (cynomolgus entry))
T4 construct: This is the full-length 332 amino acid receptor encoded by pVE3099; also called rhMC-4R; rhesus MC-4R
Procedure: (§1) Reactions were incubated for 1 hour without shaking and then filtered through 96-well filter plates (Packard corp.). Filters were washed three times with TNE buffer (50 mM Tris pH 7.4, 5 mM EDTA, 150 mM NaCl), dried and counted using Microscint-20 in a Topcount scintillation counter (Packard).
(§2) Membranes prepared from rhesus MC-4R transfected cells were evaluated alongside membranes prepared from human MC-4R, MC-4R, and MC-5R expressing cells.

human MC3 receptor [6] = molecular target: T3, human MC3 receptor; remark: listed apart in the source
Procedure: as §1, §2

human MC4 receptor [7] = molecular target: T1, human MC4 receptor; remark: listed apart in the source
Procedure: as §1, §2

human MC5 receptor [8] = molecular target: T2, human MC5 receptor; remark: listed apart in the source
Procedure: as §1, §2

T4 sequence (Q8HXX3 whole entry R167G): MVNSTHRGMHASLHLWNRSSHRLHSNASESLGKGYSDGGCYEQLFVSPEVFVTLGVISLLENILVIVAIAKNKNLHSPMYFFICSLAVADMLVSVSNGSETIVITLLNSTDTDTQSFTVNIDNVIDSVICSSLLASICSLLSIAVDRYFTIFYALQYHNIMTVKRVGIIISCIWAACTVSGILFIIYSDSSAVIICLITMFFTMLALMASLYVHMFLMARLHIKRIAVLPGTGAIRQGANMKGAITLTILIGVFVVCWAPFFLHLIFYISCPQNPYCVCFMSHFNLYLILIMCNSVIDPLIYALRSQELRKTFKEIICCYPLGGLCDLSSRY
Sequence of rhesus melanocortin-4 receptor protein (rhesus monkey (Macaca mulatta)) (Q8HXX3 whole entry R167G): as above
T1 sequence (P32245 whole entry): as the sequence (Q8HXX3 whole entry R167G) above, with A11T, H21Y, T114A, V296I counted along it
T2 sequence (P33032 whole entry): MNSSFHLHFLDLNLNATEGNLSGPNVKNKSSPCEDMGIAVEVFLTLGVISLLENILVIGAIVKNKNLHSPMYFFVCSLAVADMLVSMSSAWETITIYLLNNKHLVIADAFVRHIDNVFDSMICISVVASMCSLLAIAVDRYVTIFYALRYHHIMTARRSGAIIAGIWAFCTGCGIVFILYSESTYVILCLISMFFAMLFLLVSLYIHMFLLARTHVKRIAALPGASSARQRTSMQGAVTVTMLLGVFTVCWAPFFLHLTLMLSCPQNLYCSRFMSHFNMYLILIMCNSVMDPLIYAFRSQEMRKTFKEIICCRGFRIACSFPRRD
T3 sequence (P41968 whole entry): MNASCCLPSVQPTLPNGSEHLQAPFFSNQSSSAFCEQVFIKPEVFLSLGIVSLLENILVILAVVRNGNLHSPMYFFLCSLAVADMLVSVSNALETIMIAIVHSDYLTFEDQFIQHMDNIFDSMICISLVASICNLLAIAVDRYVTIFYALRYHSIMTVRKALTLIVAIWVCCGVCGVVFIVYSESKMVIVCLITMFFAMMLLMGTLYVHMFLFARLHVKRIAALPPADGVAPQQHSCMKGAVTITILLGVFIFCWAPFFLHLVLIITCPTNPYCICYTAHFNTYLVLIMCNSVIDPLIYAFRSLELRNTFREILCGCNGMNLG

| Molecule | IC50 [1] [pM] | IC50 (human MC4 receptor [2]) [pM] | IC50 (human MC5 receptor [3]) [pM] | IC50 (human MC3 receptor [4]) [pM] | IC50 [5] [pM] | IC50 (human MC3 receptor [6]) [pM] | IC50 (human MC4 receptor [7]) [pM] | IC50 (human MC5 receptor [8]) [pM] |
| --- | --- | --- | --- | --- | --- | --- | --- | --- |
| MTII (peptide) | 100 | 100 | 900 |  |  |  |  |  |
| NDP-alpha-MSH (peptide) | 1300 | 600 | 400 | 600 |  |  |  |  |
| SHU-9119 (peptide) | 200 | 100 | 100 | 300 |  |  |  |  |
| B1 |  |  |  |  | 211000 |  |  |  |
| B2 |  |  |  |  | 1300 | 6000 | 6000 | 400 |
| B3 |  |  |  |  | 27000 |  |  |  |
| B4 |  |  |  |  | 23000 | 23000 |  | 166000 |
